Source: US20240254246A1 (PROMETHEUS BIOSCIENCES, published 2024)
Numbering of substitutions follows the chain as printed. Read-outs that look alike come from different tables or passages of the source. Each block holds one binder with its values, some of them ahead of it.

Legend:
recombinant human CD30L [1] = target: T1, recombinant human CD30L (human, UniProt P32971 63-234); assay: KinExA, calculated as KD x kon
T1 construct: Purified recombinant protein of ELISA, BLI, Carterra and KinExA; also called rhCD30L; huCD30L
T1 sequence (looked up): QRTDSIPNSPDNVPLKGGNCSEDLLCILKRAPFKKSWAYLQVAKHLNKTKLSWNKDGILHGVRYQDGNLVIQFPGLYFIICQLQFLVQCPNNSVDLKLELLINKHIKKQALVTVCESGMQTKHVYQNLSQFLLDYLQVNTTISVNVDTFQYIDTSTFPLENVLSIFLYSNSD
Protocol: (§1) To more precisely define and compare the binding affinities (dissociation equilibrium constant, KD), the association rate constant (on rate, kₒₙ), and the dissociation rate constant (off rate, koff), the kinetic exclusion assay (KinExA) was performed. KinExA measures the equilibrium binding affinity and kinetics between unmodified binding molecules in solution. For affinity analysis, the equilibrium dissociation constant, KD, is experimentally determined and reflects the strength of the binding interaction. The rate of association, kₒₙ, is also experimentally determined, while the rate of dissociation, koff, is calculated based on the equation: koff=Kd×kₒₙ.

recombinant human CD30L [2] = target: T1, recombinant human CD30L; assay: KinExA, Fab in solution
Description: (§2) For each experiment, CD30L antigen is titrated in a background of the Fab and allowed to reach equilibrium. The solutions are then briefly exposed to the solid phase and a portion of free Fab is captured. The captured Fab is then labeled with a fluorescent secondary molecule. The short contact time with the solid phase is less than the time needed for dissociation of the pre-formed complex in solution, thus competition between the solution and the solid phase titrated binding partner is kinetically excluded.
(§3) The signals generated from the captured Fab, which are directly proportional to the concentration of free Fab in the equilibrated samples, are used to determine the KD value. The KinExA Pro software performs a least squares analysis on the measured data to fit optimal solution for the KD and the activity of the Fab to a curve representative of a 1:1 reversible bi-molecular interaction.

[3] = target: T2, cynomolgus CD30L expressed on HEK293 cells (cynomolgus, UniProt A0A7N9CVX7 1-234); assay: flow cytometry, blocking of CD30-Fc on HEK293-cyCD30L cells; competitor CD30-Fc
T2 construct: whole, on cells; also called HEK293-cyCD30L; HEK-cyCD30L
T2 sequence: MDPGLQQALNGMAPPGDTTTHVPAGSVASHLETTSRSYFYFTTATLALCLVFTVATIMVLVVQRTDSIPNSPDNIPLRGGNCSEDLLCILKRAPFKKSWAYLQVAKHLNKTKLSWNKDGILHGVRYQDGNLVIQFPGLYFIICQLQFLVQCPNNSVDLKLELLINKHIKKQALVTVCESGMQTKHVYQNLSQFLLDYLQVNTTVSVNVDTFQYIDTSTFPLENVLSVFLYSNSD

recombinant human CD30L [4] = target: T1, recombinant human CD30L; assay: ELISA, Binding to CD30L, immobilized human CD30L (Absorbance 450 nm)
[5] = target: T3, recombinant cynomolgus CD30L (cynomolgus, UniProt A0A7N9CVX7 63-234); assay: ELISA, binding to purified rcyCD30L
T3 construct: Purified recombinant protein; also called rcyCD30L; cyno CD30L
T3 sequence: T1 sequence (looked up) with V13I, K16R, I142V, I165V

recombinant human CD30L [6] = target: T1, recombinant human CD30L; assay: ELISA, binding to rhCD30L (OD 450 nm)
[7] = target: T3, recombinant cynomolgus CD30L; assay: ELISA, Binding to CD30L, immobilized cyno CD30L (Absorbance 450 nm)
[8] = target: T2, cynomolgus CD30L expressed on HEK293 …; assay: flow cytometry, HEK293-cyCD30L/CD30-Fc Neutralization: blocking of CD30-Fc binding to HEK293-cyCD30L cells
[9] = target: T4, human CD30L expressed on B16 cells (human, UniProt P32971 1-234); assay: cell-based or functional assay
T4 sequence (looked up): T2 sequence with T19A, T20M, E32G, F41L, I75V, R78K, V204I, V227I

[10] = target: T2, cynomolgus CD30L expressed on HEK293 …; assay: cell-based or functional assay
[11] = target: T4, human CD30L expressed on B16 cells; assay: flow cytometry, binding to B16-rhCD30L cells
[12] = target: T4, human CD30L expressed on B16 cells; assay: cell-based or functional assay; remark: listed apart in the source
recombinant human CD30L [13] = target: T1, recombinant human CD30L; assay: ELISA, Neutralization of CD30-Fc binding to immobilized human CD30L (Absorbance 450 nm)
[14] = target: T4, human CD30L expressed on B16 cells; assay: flow cytometry, blocking of CD30-Fc on B16-huCD30L cells; competitor CD30-Fc
recombinant human CD30L [15] = target: T1, recombinant human CD30L; assay: ELISA, blocking of CD30-Fc binding to huCD30L (OD 450 nm)
recombinant human CD30L [16] = target: T1, recombinant human CD30L; assay: ELISA, blocking of CD30-Fc on huCD30L; competitor CD30-Fc
[17] = target: T3, recombinant cynomolgus CD30L; assay: ELISA, Neutralization of CD30-Fc binding to immobilized cyno CD30L (Absorbance 450 nm)
[18] = target: T2, cynomolgus CD30L expressed on HEK293 …; assay: flow cytometry, binding to HEK293-cyCD30L cells
[19] = target: T4, human CD30L expressed on B16 cells; assay: flow cytometry, B16-huCD30L/CD30-Fc Neutralization: blocking of CD30-Fc binding to B16-huCD30L cells
[20] = target: T2, cynomolgus CD30L expressed on HEK293 …; assay: flow cytometry, Cell Binding to HEK293-cyCD30L (MFI)
recombinant human CD30L [21] = target: T1, recombinant human CD30L; assay: ELISA, binding to purified rhCD30L
[22] = target: T3, recombinant cynomolgus CD30L; assay: ELISA, blocking of CD30-Fc on rcyCD30L; competitor CD30-Fc
[23] = target: T4, human CD30L expressed on B16 cells; assay: cell-based or functional assay; remark: listed apart in the source
[24] = target: T3, recombinant cynomolgus CD30L; assay: KinExA, Fab in solution
Description: as §2, §3

recombinant human CD30L [25] = target: T1, recombinant human CD30L; assay: KinExA, calculated as KD x kon; remark: listed apart in the source
Protocol: as §1

[26] = target: T3, recombinant cynomolgus CD30L; assay: KinExA, calculated as KD x kon
Protocol: as §1
A KD analysis requires immobilization of one interaction partner to a solid phase which is then used as a probe to capture the other interaction partner, the constant binding partner (Fab). For each experiment, CD30L antigen is titrated in a background of the Fab and allowed to reach equilibrium. The solutions are then briefly exposed to the solid phase and a portion of free Fab is captured. The captured Fab is then labeled with a fluorescent secondary molecule. The short contact time with the solid phase is less than the time needed for dissociation of the pre-formed complex in solution, thus competition between the solution and the solid phase titrated binding partner is kinetically excluded.

recombinant human CD30L [27] = target: T1, recombinant human CD30L; assay: KinExA, Fab in solution; remark: listed apart in the source
Description: as §2, §3

[28] = target: T5, recombinant human CD30L protein (human, UniProt P32971 63-234); assay: KinExA, Fab, human CD30L; reference Fab of Ref1
T5 construct: also called rhCD30L; huCD30L (ELISA)
T5 sequence (looked up): T1 sequence (looked up)
Description: as §2, §3

[29] = target: T6, human CD30L expressed on cells (human, UniProt P32971 1-234); assay: flow cytometry, blocking of CD30-Fc binding to human CD30L on cells; reference Ref1
T6 construct: also called huCD30L; B16-huCD30L
T6 sequence: T2 sequence with T19A, T20M, E32G, F41L, I75V, R78K, V204I, V227I

CDH13 = target: T7, CDH13 (human, UniProt P55290 139-693); assay: cell microarray, library and confirmation screens
T7 construct: whole, on cells; also called hit #16
T7 sequence (looked up): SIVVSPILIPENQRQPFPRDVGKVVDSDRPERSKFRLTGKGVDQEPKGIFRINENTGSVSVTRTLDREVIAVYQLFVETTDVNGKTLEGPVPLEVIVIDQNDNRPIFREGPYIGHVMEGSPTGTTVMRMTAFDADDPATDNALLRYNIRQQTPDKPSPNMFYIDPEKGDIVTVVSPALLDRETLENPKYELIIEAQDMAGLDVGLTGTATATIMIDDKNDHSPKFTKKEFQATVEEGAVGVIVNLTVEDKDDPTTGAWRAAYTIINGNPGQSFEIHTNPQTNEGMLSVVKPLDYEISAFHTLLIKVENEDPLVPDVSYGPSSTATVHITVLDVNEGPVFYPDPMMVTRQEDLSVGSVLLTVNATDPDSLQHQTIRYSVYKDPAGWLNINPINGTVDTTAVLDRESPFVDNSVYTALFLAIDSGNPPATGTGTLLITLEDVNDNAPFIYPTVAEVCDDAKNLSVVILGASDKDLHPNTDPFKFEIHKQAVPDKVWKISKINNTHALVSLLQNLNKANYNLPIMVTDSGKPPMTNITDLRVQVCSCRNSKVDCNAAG

[30] = target: T8, cynomolgus CD30L expressed on cells (cynomolgus, UniProt A0A7N9CVX7 1-234); assay: flow cytometry, blocking of CD30-Fc binding to cyno CD30L on cells; reference Ref1
T8 construct: whole, on cells; also called cyCD30L; HEK293-cyCD30L
T8 sequence: T2 sequence

koff (recombinant human CD30L [1]): 0.000353 s⁻¹
Kd (recombinant human CD30L [2]): 0.377 nM
kon (recombinant human CD30L [2]): 937000 M⁻¹ s⁻¹
B1: Fab of the reference 1 (ref1) anti-CD30L (Fab, V domains shown)
VH: QVQLQESGPGLVKPSETLSLTCTVSGGSISSYIWSWIRQPAGKGLEWIGRIYASGNTNYNPSLKSRVTISVDTSKNQFSLKLSSMTAADTAVYYCARDYRVAGTYYYYYGLDVWGQGTTVTVSS
VL: QSALTQPASVSGSPGQSITISCTGTSSDVGVYDYVSWYQQHPGKAPKLMIYEVSNRPSGVSNRFSGSKSGNTASLTISGLQTEDEADYYCSSYTSRSTWVFGGGTKLTVL
notes: Fab

IC50 [3]: 0.34 nM
EC50 (read off the curve) (recombinant human CD30L [4]): ~0.03 nM
EC50 [5]: 0.05 nM
EC50 (read off the curve) (recombinant human CD30L [6]): ~0.1 nM
EC50 (read off the curve) [7]: ~0.03 nM
IC50 (read off the curve) [8]: ~0.3 nM
Inhibition of IL-8 release in a dual cell assay (B16-huCD30L cells + K299 cells) IC50 [9]: 0.89 nM
Inhibition of IL-8 release in a dual cell assay (HEK293-cyCD30L cells + K299 cells) IC50 [10]: 0.41 nM
EC50 [11]: 0.64 nM
IC50 (read off the curve), IL-8 release, dual cell assay (B16-huCD30L cells + K299 cells) [12]: ~1 nM
IC50 (read off the curve) (recombinant human CD30L [13]): ~2 nM
IC50 [14]: 0.67 nM
IC50 (read off the curve) (recombinant human CD30L [15]): ~2 nM
IC50 (recombinant human CD30L [16]): 1.92 nM
IC50 (read off the curve) [17]: ~2 nM
EC50 [18]: 0.33 nM
IC50 (read off the curve) [19]: ~0.4 nM
EC50 (read off the curve) [20]: ~0.3 nM
EC50 (recombinant human CD30L [21]): 0.03 nM
IC50 [22]: 1.53 nM
IC50 (read off the curve), IL-8 release, Dual Assay K299 + B16-huCD30L [23]: ~1 nM
B2: anti-CD30L antibody clone 2 germlined (antibody, V domains shown)
VH: EVQLVESGGGLVQPGRSLRLSCAASGFNFDDYAMHWVRQAPGKGLEWVSGISWRSGNIGYADSVKGRFTISRDNAKNSLYLQMNSLRAEDTALYYCAKDKGIGFNWNYEGFDYWGQGTLVTVSS
VL: DIQMTQSPSSLSASVGDRVTITCRASQGISNHLAWFQQKPGKAPKSLIYAASSLQSGVPSRFSGSGSGTDFTLTISSLQPEDFATYYCQQYVTYPLTFGGGTKVEIK
notes: also called germlined clone 2

fold better IC50 than reference 1 (ref1) anti-CD30L [29]: 2.74 fold
binding result (CDH13): no binding (tested: 5 µg/mL)
fold better IC50 than reference 1 (ref1) anti-CD30L [30]: 2.13 fold
B5: anti-CD30L antibody clone 2 germlined with IgG1 constant region SEQ ID NO: 502 (antibody)
heavy: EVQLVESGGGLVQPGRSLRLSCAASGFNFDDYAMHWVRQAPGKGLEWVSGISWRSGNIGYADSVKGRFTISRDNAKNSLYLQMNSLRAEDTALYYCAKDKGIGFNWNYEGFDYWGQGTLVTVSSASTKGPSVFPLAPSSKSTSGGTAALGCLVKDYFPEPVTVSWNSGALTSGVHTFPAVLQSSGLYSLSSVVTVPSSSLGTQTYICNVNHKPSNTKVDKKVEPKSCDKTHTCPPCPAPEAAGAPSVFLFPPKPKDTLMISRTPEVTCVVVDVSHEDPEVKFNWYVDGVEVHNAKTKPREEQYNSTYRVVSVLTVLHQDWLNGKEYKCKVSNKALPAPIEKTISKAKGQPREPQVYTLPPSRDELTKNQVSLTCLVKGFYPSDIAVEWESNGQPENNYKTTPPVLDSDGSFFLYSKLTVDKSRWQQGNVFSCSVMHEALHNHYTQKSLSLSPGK
VL: B2 VL
notes: also called germlined clone 2; copies: 2 + 2

Second part, the binder before the results:

B3: Fab of clone 2 germlined (Fab, V domains shown)
VH: B2 VH
VL: B2 VL
notes: Fab; also called Fab of a representative anti-CD30L, clone 2 germlined
Kd [24]: 0.122 nM
kon [24]: 3.1e+06 M⁻¹ s⁻¹
koff (recombinant human CD30L [25]): 0.000141 s⁻¹
koff [26]: 0.000378 s⁻¹
Kd (recombinant human CD30L [27]): 0.0905 nM
kon (recombinant human CD30L [27]): 1.55e+06 M⁻¹ s⁻¹

B4: Fab of clone 2 germlined (Fab, V domains shown)
VH: B2 VH
VL: B2 VL
notes: Fab used in KinExA; also called Fab of a representative anti-CD30L, clone 2 germlined
fold difference in KD against the reference 1 anti-CD30L [28]: 4.2 fold
